Data from paper PMC6130943, “Cytochrome P450 and O-methyltransferase catalyze the final steps in the biosynthesis of the anti-addictive alkaloid ibogaine from Tabernanthe iboga” (The Journal of Biological Chemistry, 2018).

Test system: CC[C@H]1C[C@@H]2C[C@H]3c4[nH]c5ccc(O)cc5c4CCN(C2)[C@@H]13
Assay: HPLC-MS of ibogaine formation, Michaelis-Menten fit
Format: biochemical, Tabernanthe iboga
Conditions: SAM, HEPES, pH 9 (relative-rate assays adjusted to optimum), 30 °C, 25 min
From the text: HPLC-MS of ibogaine formation, Michaelis-Menten fit on N10OMT (noribogaine-10-O-methyltransferase; OMT candidate 1)

“N10OMT (noribogaine-10-O-methyltransferase; OMT candidate 1) (Tabernanthe iboga)” showed a Km of 73.6 ± 28.5 µM, a Vmax of 0.00084 µmol/min/mg and a kcat of 0.000548 ± 7.23e-05 s⁻¹. For the same substance, the kcat/Km was 7.45 ± 3.05 M⁻¹ s⁻¹.
